# IntAct's records for PubMed 21300286
# B1: Tumor necrosis factor receptor superfamily member 6B (Homo sapiens), O95407 (parent)
# chain: MRALEGPGLSLLCLVLALPALLPVPAVRGVAETPTYPWRDAETGERLVCAQCPPGTFVQRPCRRDSPTTCGPCPPRHYTQFWNYLERCRYCNVLCGEREEEARACHATHNRACRCRTGFFAHAGFCLEHASCPPGAGVIAPGTPSQNTQCQPCPPGTFSASSSSSEQCQPHRNCTALGLALNVPGSSSHDTLCTSCTGFPLSTRVPGAEECERAVIDFVAFQDISIKRLQRLLQALEAPEGWGPTPRAGRAALQLKLRRRLTELLGAQDGALLVRLLQALRVARMPGLERSVRERFLPVH
# partner: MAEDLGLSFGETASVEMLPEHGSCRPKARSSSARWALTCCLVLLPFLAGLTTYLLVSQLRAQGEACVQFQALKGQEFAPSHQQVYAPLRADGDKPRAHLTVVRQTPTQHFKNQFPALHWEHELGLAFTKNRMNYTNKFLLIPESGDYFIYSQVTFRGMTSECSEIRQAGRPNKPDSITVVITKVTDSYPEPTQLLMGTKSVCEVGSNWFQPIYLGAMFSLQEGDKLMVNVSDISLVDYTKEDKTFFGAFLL
# B2: Tumor necrosis factor ligand superfamily member 15 (Homo sapiens), O95150-1 (parent)
# chain: B1 partner
# partner: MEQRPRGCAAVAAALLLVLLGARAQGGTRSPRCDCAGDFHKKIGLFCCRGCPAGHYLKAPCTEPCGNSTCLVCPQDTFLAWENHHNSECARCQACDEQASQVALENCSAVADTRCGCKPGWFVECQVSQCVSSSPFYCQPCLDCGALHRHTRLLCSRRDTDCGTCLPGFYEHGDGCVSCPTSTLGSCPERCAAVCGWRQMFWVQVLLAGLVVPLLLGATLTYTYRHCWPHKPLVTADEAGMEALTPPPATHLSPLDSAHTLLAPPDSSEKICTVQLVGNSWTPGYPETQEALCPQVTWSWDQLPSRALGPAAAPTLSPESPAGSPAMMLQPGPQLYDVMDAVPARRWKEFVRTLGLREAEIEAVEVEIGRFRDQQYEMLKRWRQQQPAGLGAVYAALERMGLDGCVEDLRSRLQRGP
# B3: Tumor necrosis factor receptor superfamily member 6B (Homo sapiens), O95407 (parent)
# chain: B1 chain
# Variants of: B1
# Details: with TNFSF15, O95150-1
row,effect of a mutation on the interaction,Variant
1,decreasing interaction,L85A;R89A

# Variants of: B2
# Details: with TNFRSF25, Q93038-1
row,effect of a mutation on the interaction,Variant
1,disrupting interaction,C162S;S187A;E190A;C202S

# Variants of: B3
# Details: with TNFSF14, O43557-1
# Chain of TNFSF14, O43557-1 (O43557 whole entry): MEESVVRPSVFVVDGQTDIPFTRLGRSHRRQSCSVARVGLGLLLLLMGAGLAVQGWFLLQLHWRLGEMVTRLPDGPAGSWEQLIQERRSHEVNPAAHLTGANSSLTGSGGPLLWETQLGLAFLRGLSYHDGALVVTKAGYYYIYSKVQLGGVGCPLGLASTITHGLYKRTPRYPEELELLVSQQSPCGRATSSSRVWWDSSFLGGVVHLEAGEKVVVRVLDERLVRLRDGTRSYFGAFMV
row,effect of a mutation on the interaction,Variant
1,decreasing interaction,L85A;R89A

# Variants of: B3
# Details: with tnfl6_human FASLG
row,effect of a mutation on the interaction,Variant
1,disrupting interaction,L85A;R89A
